This is an account of results in the supplement of paper PMC7877785.

± gives the uncertainty stated by the source.

The data set can be described thus: self-splicing fitness, log relative to wild type (ln ratio); higher = more splicing; Tetrahymena group I intron in knt gene, E. coli kanamycin selection, DiMSum; sequences stand for … in CUCUCU…GGAGGGAAAAGUUAUCAGGCAUGCACCUGGUAGCUAGUCUUUAAACCAAUAGAUUGCAUCGGUUUAAAAGGCAAGACCGUCAAAUUGCGGGAAAGGGGUCAACAGCCGUUCAGUACCAAGUCUCAGGGGAAACUUUGAGAUGGCCUUGCAAAGGGUAUGGUAAUAAGCUGACGGACAUGGUCCUAACCACGCAGCCAAGUCCUAAGUCAACAGAUCUUCUGUUGAUAUGGAUGCAGUUCACAGACUAAAUGUCGGUCGGGGAAGAUGUAUUCUUCUCAUAAGAUAUAGUCGGACCUCUCCUUAAUGGGAGCUAGCGGAUGAAGUGAUGCAACACUGGAGCCGCUGGGAACUAAUUUGUAUGCGAAAGUAUAUUGAUUAGUUUUGGAGUACUCGUGGUCG
A digest of the protocol: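 Library with all eight P1ex-region intron nucleotides randomised, intron inside the knt kanamycin-resistance gene on pET-22b(+), in E. coli BL21(DE3). Cells grew overnight at 37°C or 30°C on LB agar with or without 25 μg/mL kanamycin (plus 100 μg/mL carbenicillin, 50 μM IPTG, 0.2% rhamnose), in six replicate transformations. Pooled colonies were amplicon-sequenced on Illumina HiSeq 2500. DiMSum fitness is the error-weighted combination of wild-type-normalised replicate fold changes, kanamycin versus none.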

Regarding CAUCAGCAAUAUUACGGAUG, the “self-splicing fitness (ln)” value is, setting by setting: (30 °C) -4 ± 0.14; (37 °C) -2.94 ± 0.14.
Consider CCGGAGCAAUAUUACGACAA, for which the “self-splicing fitness (ln)” value by setting is: (30 °C) -3.72 ± 0.43; (37 °C) -2.16 ± 0.3.
Turning to CGUGAGCAAUAUUACGCUAG, the “self-splicing fitness (ln)” value by setting is: (30 °C) -2.9 ± 0.12; (37 °C) -1.47 ± 0.21.
In the case of CCACAGCAAUAUUACGUGGU, the “self-splicing fitness (ln)” value is -4.13 ± 0.14 (30 °C) and -3.65 ± 0.17 (37 °C).
The matching figures for CUAUAGCAAUAUUACGUCUA: -3.05 ± 0.36 and -3.16 ± 0.35.
Regarding CUGGAGCAAUAUUACGUCUU, the “self-splicing fitness (ln)” value (30 °C) is -3.27 ± 0.39.
For AAUAAGCAAUAUUACGCCAA, the “self-splicing fitness (ln)” value (30 °C) was -2.17 ± 0.21 and the “self-splicing fitness (ln)” value (37 °C) was -1.46 ± 0.18.
GGAGAGCAAUAUUACGAAUA: the “self-splicing fitness (ln)” value (30 °C) is -2.51 ± 0.26.
AAAGAGCAAUAUUACGUGAG: the “self-splicing fitness (ln)” value runs as follows: (30 °C) -2.95 ± 0.12; (37 °C) -1.02 ± 0.12.
For GGUGAGCAAUAUUACGUGUU, the “self-splicing fitness (ln)” value (37 °C) was -1.87 ± 0.27.
Take CUGGAGCAAUAUUACGUUUG: the “self-splicing fitness (ln)” value (30 °C) was -2.66 ± 0.17 and the “self-splicing fitness (ln)” value (37 °C) was -1.21 ± 0.17.
For UUCAAGCAAUAUUACGGCUU, the “self-splicing fitness (ln)” value reads like this: (30 °C) -2.58 ± 0.14; (37 °C) -1.16 ± 0.14.
As for AACAAGCAAUAUUACGAGUC, the “self-splicing fitness (ln)” value by setting is: (30 °C) -3.19 ± 0.12; (37 °C) -1.89 ± 0.14.
